Experimental data: patent US20240026407A1, “MODIFICATION OF SAPONINS” (GLAXOSMITHKLINE BIOLOGICALS SA, priority 2020, published 2024)

How the values were obtained:
Assay type in all cases: biochemical, Quillaja saponaria
[1] = Experiment 6-1: screening of rhamnosidases for derhamnosylation of saponins in treated bark extract (2%), QS-17 2310 to QS-18 2164 (PAR %); conditions: TBE 2%, pH 7.5, 30 degC, 18 h; TIC peak area ratio percent, LCMS/MS; negative controls 3.061, 2.429
[2] = Experiment 6-1: screening of rhamnosidases for derhamnosylation of saponins in treated bark extract (2%), QS-17 2296 to QS-18 2150 (PAR %); conditions: TBE 2%, pH 7.5, 30 degC, 18 h; TIC peak area ratio percent of rhamnosylated starting saponin to derhamnosylated product, LCMS/MS; negative controls 4.876, 5.225
[3] = Experiment 6-1: specificity of rhamnosidases towards other rhamnose residues (C3 saccharide rhamnose, C28 saccharide rhamnose); conditions: TBE 2%, pH 7.5, 30 degC, 18 h; LCMS/MS; negative controls 0.18, 0.17
[4] = Experiment 6-1: screening of rhamnosidases for derhamnosylation of saponins in treated bark extract (2%), desglucosyl-QS-17 2134 to QS-21 1988 (PAR %); conditions: TBE 2%, pH 7.5, 30 degC, 18 h; TIC peak area ratio percent, LCMS/MS; negative controls 2.719, 2.158

B1: 1067 (protein, listed as Pedobacter heparinus)
chain: MKLIPNFLKTSMQQTVLLLLLALVCCADTVLAQQSGKASWIWYPGDLDIWVSNKMQNRRTERGAFLPPFWKMDSHYVLVEFHKEFNLANAEEVNLYVEGQYNVKIDGQAFSGYPKKITVPAGKHKLSLKVYGQDKVPAILVQGKTVVSDESWLATFEDKEWIDASGKASDKSGTTFVSAASWNLTDPLSPPSRFKLATTPMAAVKTDKVNNGFVADFGKETFGFIKLHGLKGKGKLHIYYGESKEEALSADHCETLDLLEIDLKGKQDSVIELSKAFRYVNCQPEGNVTLDKVSMLYEYAPVTEKGNFRCSDEQINKIYDISKYTFHLNTREFFIDGIKRDRWVWSGDAYQSYLMNYYSFNESPIVKRTLLAQRGKDPVTAHINTIMDYSFYWFLGIYDYYQYSGDQKFVQDIYPRMKSLMDYVLGRRNKDGLLEWMPGDWIFIDWADKLSKDGEVSFEQLLFCRSLETMALCADMAKDTEAAANYKKLAADLKARIFKLYWDENKHALVHSRINGKPTDNVTRYANMFGIFFDYFSPSQKQEVKQHVLMNNKINKITTPYMRFYELEALCAMGEQSYVLKQMKDYWGGMLELGATSFWEEYNRDKKGVEHLAMYGRPFGKSLCHAWGASPIYLLGKYYLGVKPLSAGYETYVVEPSLGGLEWMEGKVPTPSGEISLYCSKKEIRIKADEGSGVLRFKSVSKPVVKGGKVVEVGKRTYELKLMKGVQYTVNYQK
[1]
  Peak57 (PAR %): 2.852%
[2]
  QS-17 (PAR %): 4.455%
[3]
  ratio PP/QS-21: 0.17
[4]
  Peak75 (PAR %): 2.231%

B2: 1074 (protein, listed as Actinoplanes sp.)
chain: MKGSFAVLAAALLLMPVSAPTAAAEPAVTLDGAHWIWYPEGDPATSAPAATRYLRRAFTVAASDIATAQLVVTGDDTIDVWVNGVRLAGSPRAADSWKRAVRVDLAGSLHPGSNTVALAARNTGGPAGVLGRLHAGSVDLVTDGSWRAATGVPENWADPAFSDVAWTTAKDLGAYGGGPWGAGVALPDPAAASPVSVTDLTVNRQADPVGVDTPRFGWRLAAGTGGQMQGRYQLTVGSTAGAADVWDSGIVASTASRDIGYSGPALGANRTYFWRVRVWDAQGRPSAWSAGARFDTGIALTAAFVGAPPAGDLSGADWIWYPEGDPATSAPAATRYFRRTVTLATSTTLVVAGDDTADVWVDGTQISASPRVTDSWKTAATVTVPAGTRTIAIAASNTTVGPAGVIAKLGGIVTDGSWRSATAAPGGWQQPGFDDSGWLAAKVLAAYGSGPWGGQVLVPAAAPYLRKGFAVTRPVARARLFATALGLHDTYLNGARVGTERLAPGWTDYTKRVQYRGYDVTAALRLGDNALAAQIGHGWYSGNIGFAGSRRYGTQPWYAAQLIIEYTDGTSATVQTDGSWRTAPGNILGDDLYAGETQDARLIRSGWNTAGFDDSDWVPVTVQNGARPTLVPQVDPGVTVQQELRPVAVTQPKPGVFIADLGQNFTGWDRLRVSGPAGTTVTLRHGEILNADGTLYTANLRAAQATDRFTLAGTGTETFEPRFTVHGYRYVEITGFPGTPDADSLTGLAAWTGGAATGMFTSSDSTLNQVQRAILWGARSNLLSIPTDCPQRDERLGWTGDIAAFVATSTFNFDTYGLLAKFATDLTDAQHSDGAFTDVAPDVLGGAGKAGWGDAGVIVPYTVWQRFGDLAPADRNFAAMARWVDYLRSTAGADLIRNQDTYGDWLNVDDGTGNDLTSTAFFGWSARLVSRMAAATGRTAQAATYGTLADQIAAAFTGRFVHADNTVGTGSETGYVLALAFGLVPGDRVQAVADRLAAKVASRNGHLSVGFMGVENLLPVLADHGHADVAYRILQQPDYPGWGYMIARGATTIWERWDGIRPDGSLQDPGMNSFNHYGLGSVGDWLYREVGGVAPAAPGYAQVLLAPKPGGSLTSASAELTTTFGRVRSAWSRSGSAVTLQVVVATGTTATVRVPGTAVTSAPAEAVPVGGTSYVVGAGSYTFTSTL
[1]
  Peak57 (PAR %): 1.681%
[2]
  QS-17 (PAR %): 4.443%
[3]
  ratio PP/QS-21: 0.18
[4]
  Peak75 (PAR %): 2.312%
